Source: patent US20090269346A1 (RAPTOR PHARMACEUTICAL, published 2009)

Experiments:
LRP2 CR2728 = target: T1, LRP2 CR2728 (UniProt P98164 3552-3631); experiment: solid-phase binding assay, ligand at 80 nM on coated CR proteins, blank-corrected absorbance
T1 construct: domain: CR27 and CR28; its making is not described
T1 sequence (looked up): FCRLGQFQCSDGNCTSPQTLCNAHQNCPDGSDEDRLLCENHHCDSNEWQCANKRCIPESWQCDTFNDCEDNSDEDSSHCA
Method: (§1) Solid phase binding assays-Purified, refolded CR protein (1 μg) was bound to Nunc Maxisorp™ 96-well plates in TBS pH 8 supplemented with 5 mM CaCl₂ (TBSC) overnight at 4° C. Wells were washed with TBSC and then blocked with TBSC containing 2% bovine serum albumin (BSA). RAP ligands were then incubated with the immobilized receptor at a range of concentrations for 2 hours in the above blocking buffer supplemented with 0.05% Tween-20 at room temperature. Control wells contained no added ligand. As an additional control, to determine whether the absence of calcium affected binding, 10 mM EGTA was included in the incubation medium for some samples. Wells were washed with TBSTC and bound ligands detected with polyclonal anti-RAP (BP41/42, 1:1,000, BioMarin). Excess primary antibody was removed and wells washed before incubation with the secondary antibody, HRP-conjugated goat anti rabbit IgG (Bio-Rad). After washing, TMB substrate solutions (Bio-Rad) were added to detect HRP. Color development was stopped with 1N HCl. Absorption at 450 nm was measured with a microplate spectrophotometer (Molecular Devices). Data were plotted and Kd values derived by non-linear regression with the assumption of single-site binding (GraphPad Prism).
Binding experiments were also carried out comparing the binding of RAP d3 and RAPv2A d3 to an array of CR pairs (FIG. 9), similar to the experiment depicted in FIG. 5. For these experiments, RAP d3 and RAPv2A d3 (or RAPv2 d3) were each incubated at 80 nM concentrations with LRP1 CR3-5, LRP6 CR12, LRP6 CR23, LRP6 CR1-3, LRP2 CR89, LRP2 CR2728, LRP2 CR3031, LRP2 CR3435, LRP2 CR34-36, VLDLR CR78, VLDLR CR6-8, MAT CR12, MAT CR23 and MAT CR34. Samples were tested twice, in duplicate, and values combined. Means and standard deviations were then calculated. Blank values obtained from wells incubated in the absence of ligand were used to correct absorbance data.

LRP2 CR89 = target: T2, LRP2 CR89 (human, UniProt P98164 1025-1102); experiment: solid-phase assay, coated CR protein, anti-RAP, OD450
T2 construct: domain: CR8 and CR9; also called YVWR; L2 CR89; not shown: N-terminal hexahistidine and S-peptide from pET30(+)a
T2 sequence (P98164 1025-1102): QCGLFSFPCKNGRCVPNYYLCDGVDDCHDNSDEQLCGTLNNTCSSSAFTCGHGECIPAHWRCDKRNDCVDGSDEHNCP
Method: as §1
(§2) Additional assays were performed to assess the binding of wild-type RAP d3 (SEQ ID NO: 92) to each CR pair or set of overlapping pairs was then measured by solid-phase assay (FIG. 5B). Diluted samples were incubated with each test protein, immobilized in multiwell plates. Binding assays were performed as described in Methods. Two independent experiments were performed with triplicate wells for each sample. Means and standard deviations were calculated from the combined values from both experiments and plotted against ligand concentration. Curves were fitted using non-linear regression with a single-site binding model (GraphPad Prism). Kd values with standard deviations were derived from the fitted curves. In all cases, 10 mM EGTA removed >85% of the mean binding signal at the highest concentration of ligand tested.

LRP1 CR3-5 = target: T3, LRP1 CR3-5 (human); experiment: as above
T3 construct: range 852-973; Amplified from human cDNA; also called L1 CR3-5
T3 sequence (Q07954 852-973): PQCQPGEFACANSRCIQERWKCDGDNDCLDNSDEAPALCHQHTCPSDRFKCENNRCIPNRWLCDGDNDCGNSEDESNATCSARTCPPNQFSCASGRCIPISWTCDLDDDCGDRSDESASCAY
Method: as §1, §2

VLDLR CR6-8 = target: T4, VLDLR CR6-8 (human, UniProt P98155 235-358); experiment: as above
T4 construct: range 235-358; also called V CR6-8; not shown: N-terminal hexahistidine and S-peptide from pET30(+)a
Method: as §1, §2

LRP2 CR89 V1047D R1088D = target: T5, LRP2 CR89 V1047D R1088D (human, UniProt P98164 1022-1105); experiment: solid-phase binding assay: CR protein coated on the plate, ligand titrated, anti-RAP polyclonal and HRP secondary, OD 450 nm
T5 construct: also called YDWD
T5 chain: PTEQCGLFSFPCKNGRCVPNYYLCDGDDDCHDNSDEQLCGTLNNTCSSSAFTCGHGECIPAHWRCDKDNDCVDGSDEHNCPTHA
Method: as §1
(§3) One premise of this work was that amino acids at A, C, A′ and C′ within the calcium-binding loops of a CR pair were key determinants of binding affinity for RAP and would be similarly important for binding of RAP variants. To test this idea, we prepared mutants of LRP2 CR89 in which the native, non-canonical residues at these positions were sequentially substituted with the non-native, canonical residues. As defined above, the A, C, A′, C′ string for LRP2 CR89 is YVWR. Mutants included LRP2 CR89 Y1042W (WVWR), LRP2 CR89 V1047D (YDWR), LRP2 CR89 R1088D (YVWD), LRP2 CR89 V1047D R1088D (YDWD), LRP2 CR89 Y1042W V1047D R1088D (WDWD), LRP2 CR89 Y1042W V1047D (WDWR), LRP2 CR89 Y1042W R1088D (WVWD). Binding to both RAP d3 and RAPv2A d3 were measured for each LRP2 CR89 mutant by solid-phase assay. Samples were tested in triplicate. OD values from uncoated wells, receptor-coated wells incubated with buffer alone, and uncoated wells incubated with the highest ligand concentration all gave similar values for all conditions tested.

LRP2 CR89 V1047D = target: T6, LRP2 CR89 V1047D (human, UniProt P98164 1022-1105); experiment: as above
T6 construct: also called YDWR
T6 chain: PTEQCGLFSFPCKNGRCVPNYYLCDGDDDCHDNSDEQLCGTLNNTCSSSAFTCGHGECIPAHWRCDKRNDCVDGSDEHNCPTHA
Method: as §1, §3

LRP2 CR89 R1088D = target: T7, LRP2 CR89 R1088D (human, UniProt P98164 1022-1105); experiment: as above
T7 construct: also called YVWD
Method: as §1, §3

LRP2 CR89 Y1042W = target: T8, LRP2 CR89 Y1042W (human, UniProt P98164 1022-1105); experiment: as above
T8 construct: also called WVWR
T8 chain: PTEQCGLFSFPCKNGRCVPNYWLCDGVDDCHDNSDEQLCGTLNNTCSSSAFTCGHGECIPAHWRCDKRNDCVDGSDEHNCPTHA
Method: as §1, §3

binding result (LRP2 CR2728): no binding (tested: 80 nM) | Kd (LRP2 CR89): > 300 nM | Kd (LRP1 CR3-5): 11 nM | Kd (VLDLR CR6-8): > 300 nM | binding result (LRP2 CR89 V1047D R1088D): no binding (tested: 100 nM) | binding result (LRP2 CR89 V1047D): no binding (tested: 100 nM) | binding result (LRP2 CR89 R1088D): no binding (tested: 100 nM) | binding result (LRP2 CR89 Y1042W): no binding (tested: 100 nM)
B1: wild-type RAP d3 (ligand)
chain: LDRLRRVSHQGYSTEAEFEEPRVIDLWDLEQSANLTDKELEAFREELKHFEAKIEKHNHYQKQLEIAHEKLRHAESVGDGERVSRSREKHALLEGRTKELGYTVKKHLQDLSGRISRAR
notes: expressed in E. coli from pET30(+)a; not shown: vector-encoded N-terminal tags of pET30(+)a (hexahistidine and S-peptide, as stated for the CR constructs)
